Laboratory results: PMC8280789
pKd: −log10 of the molar value.

Columns and labels:
Test in all cases: ELISA; dose-response: host component coated (1 μg/well); rLIC13086 at rising concentrations (0–5 μM in the methods; 0–0.5 μM or 0–5 μM in the legends), 2 h at 37°C; detected with HRP-conjugated anti-His mAb; KD from a non-linear fit of the specific binding equation (GraphPad Prism)
[1] = biological target: laminin (human)
[2] = biological target: C8 (human)
[3] = biological target: fibrinogen (human)
[4] = biological target: C4b (human)
[5] = biological target: C7 (human) (UniProt P10643)
[6] = biological target: C5b6 (human) (UniProt P13671)
[7] = biological target: plasma fibronectin (human)
[8] = biological target: plasminogen (human)
[9] = biological target: C4BP (human)
[10] = biological target: C9 (human) (UniProt P02748)
Sequence of UniProt P02748 (P02748 22-559): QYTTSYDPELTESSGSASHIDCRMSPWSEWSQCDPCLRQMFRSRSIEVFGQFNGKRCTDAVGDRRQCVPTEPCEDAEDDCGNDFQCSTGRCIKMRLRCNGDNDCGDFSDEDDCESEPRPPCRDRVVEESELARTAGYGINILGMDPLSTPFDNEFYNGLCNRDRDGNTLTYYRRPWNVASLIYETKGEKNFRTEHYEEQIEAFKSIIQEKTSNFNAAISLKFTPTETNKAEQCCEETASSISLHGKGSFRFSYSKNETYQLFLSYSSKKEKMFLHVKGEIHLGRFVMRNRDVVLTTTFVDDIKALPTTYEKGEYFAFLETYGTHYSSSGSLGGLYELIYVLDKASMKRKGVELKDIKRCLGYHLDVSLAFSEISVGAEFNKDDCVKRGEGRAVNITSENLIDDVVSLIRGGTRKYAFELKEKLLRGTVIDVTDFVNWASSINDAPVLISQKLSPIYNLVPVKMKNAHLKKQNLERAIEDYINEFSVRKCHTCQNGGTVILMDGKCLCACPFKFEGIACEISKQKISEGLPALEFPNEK

Sequence of plasma fibronectin (human) (P02751 other isoform, or with tags, fused parts or gaps, chain 1 of 2): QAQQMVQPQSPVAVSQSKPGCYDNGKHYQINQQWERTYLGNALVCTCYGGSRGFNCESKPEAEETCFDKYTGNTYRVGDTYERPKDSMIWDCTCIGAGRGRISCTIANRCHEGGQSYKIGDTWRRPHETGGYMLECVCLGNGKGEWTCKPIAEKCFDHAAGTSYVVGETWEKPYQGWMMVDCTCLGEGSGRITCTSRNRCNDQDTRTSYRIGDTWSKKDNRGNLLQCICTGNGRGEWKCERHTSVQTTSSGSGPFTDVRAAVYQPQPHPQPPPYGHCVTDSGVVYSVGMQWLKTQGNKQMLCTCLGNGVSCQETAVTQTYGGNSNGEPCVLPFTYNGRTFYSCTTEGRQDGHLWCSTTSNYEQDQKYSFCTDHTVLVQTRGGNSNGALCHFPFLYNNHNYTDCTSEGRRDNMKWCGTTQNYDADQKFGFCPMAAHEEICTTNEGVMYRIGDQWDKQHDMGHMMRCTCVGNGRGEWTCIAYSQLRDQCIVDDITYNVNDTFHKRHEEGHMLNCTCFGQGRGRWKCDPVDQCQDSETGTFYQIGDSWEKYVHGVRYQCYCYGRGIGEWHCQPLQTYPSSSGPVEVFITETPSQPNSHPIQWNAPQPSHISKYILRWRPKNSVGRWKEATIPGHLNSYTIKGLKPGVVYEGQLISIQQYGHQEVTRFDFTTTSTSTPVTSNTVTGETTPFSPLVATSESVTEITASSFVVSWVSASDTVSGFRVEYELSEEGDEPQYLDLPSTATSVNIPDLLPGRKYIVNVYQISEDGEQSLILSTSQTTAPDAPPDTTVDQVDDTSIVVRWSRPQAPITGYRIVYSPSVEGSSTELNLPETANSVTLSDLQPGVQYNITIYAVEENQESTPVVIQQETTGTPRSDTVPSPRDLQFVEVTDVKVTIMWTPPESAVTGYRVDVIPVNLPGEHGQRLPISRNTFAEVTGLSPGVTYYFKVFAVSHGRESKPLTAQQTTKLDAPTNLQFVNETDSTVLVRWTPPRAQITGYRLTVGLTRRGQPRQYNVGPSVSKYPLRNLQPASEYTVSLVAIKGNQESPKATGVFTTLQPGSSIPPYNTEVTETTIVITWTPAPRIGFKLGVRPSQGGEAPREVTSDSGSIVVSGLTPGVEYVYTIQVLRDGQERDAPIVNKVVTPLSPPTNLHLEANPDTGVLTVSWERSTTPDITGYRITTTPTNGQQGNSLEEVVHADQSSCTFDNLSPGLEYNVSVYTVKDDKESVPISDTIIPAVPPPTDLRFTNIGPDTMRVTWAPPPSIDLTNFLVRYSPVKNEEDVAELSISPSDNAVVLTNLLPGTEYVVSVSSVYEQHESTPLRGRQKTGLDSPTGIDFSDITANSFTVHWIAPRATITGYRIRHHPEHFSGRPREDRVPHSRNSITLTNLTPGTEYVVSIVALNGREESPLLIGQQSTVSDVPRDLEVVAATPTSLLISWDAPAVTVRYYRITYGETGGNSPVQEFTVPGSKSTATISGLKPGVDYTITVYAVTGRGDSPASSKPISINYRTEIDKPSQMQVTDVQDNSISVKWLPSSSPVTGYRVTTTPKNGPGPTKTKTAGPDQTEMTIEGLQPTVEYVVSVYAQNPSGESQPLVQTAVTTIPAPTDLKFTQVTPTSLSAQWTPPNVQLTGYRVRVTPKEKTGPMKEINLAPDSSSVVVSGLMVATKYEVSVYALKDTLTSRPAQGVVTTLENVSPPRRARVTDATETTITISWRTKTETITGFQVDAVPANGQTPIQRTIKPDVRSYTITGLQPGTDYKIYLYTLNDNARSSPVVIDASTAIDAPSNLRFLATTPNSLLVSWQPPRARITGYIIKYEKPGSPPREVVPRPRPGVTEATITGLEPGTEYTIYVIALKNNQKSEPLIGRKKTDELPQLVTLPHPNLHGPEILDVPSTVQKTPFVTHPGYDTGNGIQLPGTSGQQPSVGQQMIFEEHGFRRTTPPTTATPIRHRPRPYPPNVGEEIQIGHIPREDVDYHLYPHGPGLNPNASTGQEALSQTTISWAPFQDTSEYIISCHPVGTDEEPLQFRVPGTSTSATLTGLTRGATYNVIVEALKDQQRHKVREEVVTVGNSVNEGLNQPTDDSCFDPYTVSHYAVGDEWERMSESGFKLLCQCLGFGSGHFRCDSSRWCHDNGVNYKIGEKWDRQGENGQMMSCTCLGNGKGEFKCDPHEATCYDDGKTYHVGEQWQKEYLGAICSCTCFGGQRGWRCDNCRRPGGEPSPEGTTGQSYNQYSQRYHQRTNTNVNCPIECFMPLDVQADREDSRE
Sequence of plasma fibronectin (human) (P02751 other isoform, or with tags, fused parts or gaps, chain 2 of 2): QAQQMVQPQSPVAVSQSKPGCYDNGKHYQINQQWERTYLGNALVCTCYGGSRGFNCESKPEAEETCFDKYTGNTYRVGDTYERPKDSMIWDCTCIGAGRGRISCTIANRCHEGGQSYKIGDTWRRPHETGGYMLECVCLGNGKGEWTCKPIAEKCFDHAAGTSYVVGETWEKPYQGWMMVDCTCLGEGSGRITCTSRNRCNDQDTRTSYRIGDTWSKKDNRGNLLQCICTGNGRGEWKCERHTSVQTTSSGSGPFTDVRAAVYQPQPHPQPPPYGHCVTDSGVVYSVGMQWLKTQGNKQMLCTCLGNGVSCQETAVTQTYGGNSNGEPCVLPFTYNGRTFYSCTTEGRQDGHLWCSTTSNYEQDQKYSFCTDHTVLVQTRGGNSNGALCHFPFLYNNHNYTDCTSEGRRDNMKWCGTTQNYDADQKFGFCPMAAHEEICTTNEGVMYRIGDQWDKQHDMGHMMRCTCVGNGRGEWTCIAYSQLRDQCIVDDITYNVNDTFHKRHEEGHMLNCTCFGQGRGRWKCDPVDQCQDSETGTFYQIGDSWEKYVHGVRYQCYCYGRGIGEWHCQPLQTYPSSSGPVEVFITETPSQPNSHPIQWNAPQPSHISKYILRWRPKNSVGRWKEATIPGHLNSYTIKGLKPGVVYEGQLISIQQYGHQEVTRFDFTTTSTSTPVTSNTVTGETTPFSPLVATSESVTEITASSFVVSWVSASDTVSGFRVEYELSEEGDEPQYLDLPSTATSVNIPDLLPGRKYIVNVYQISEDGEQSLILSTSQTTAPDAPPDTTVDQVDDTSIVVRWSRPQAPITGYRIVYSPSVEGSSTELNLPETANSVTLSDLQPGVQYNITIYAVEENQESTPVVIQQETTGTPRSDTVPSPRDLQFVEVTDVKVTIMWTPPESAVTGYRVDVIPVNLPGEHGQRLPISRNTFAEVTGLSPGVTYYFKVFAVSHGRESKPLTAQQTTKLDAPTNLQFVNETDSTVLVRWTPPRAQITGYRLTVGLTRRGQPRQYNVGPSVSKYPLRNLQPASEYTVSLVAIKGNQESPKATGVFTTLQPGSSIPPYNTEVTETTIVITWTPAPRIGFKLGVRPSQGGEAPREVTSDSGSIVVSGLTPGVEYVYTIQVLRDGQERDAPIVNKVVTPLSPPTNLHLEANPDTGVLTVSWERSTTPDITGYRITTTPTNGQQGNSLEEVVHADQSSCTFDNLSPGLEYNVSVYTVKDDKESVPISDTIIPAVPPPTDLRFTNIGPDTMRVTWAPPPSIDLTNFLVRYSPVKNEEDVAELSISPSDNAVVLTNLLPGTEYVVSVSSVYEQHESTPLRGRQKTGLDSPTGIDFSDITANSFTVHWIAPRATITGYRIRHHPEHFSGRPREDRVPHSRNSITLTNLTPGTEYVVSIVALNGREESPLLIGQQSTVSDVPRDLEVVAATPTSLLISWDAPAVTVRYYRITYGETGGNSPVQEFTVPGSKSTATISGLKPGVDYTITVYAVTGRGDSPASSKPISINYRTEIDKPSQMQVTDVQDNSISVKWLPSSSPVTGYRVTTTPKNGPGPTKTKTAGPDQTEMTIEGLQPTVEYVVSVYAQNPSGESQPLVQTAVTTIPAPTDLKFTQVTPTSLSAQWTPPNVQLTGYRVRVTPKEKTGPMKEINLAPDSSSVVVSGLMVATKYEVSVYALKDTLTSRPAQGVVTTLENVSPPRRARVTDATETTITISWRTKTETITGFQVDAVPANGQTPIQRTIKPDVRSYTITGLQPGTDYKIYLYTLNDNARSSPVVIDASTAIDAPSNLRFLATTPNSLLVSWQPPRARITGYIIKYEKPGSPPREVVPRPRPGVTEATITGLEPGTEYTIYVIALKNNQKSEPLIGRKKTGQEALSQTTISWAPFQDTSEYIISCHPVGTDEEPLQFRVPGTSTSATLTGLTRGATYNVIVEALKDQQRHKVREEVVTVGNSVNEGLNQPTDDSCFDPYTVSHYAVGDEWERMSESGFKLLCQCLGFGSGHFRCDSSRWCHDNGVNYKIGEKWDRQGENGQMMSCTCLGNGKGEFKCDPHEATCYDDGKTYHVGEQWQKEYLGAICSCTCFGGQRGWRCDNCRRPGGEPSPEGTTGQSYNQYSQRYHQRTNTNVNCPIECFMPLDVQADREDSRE

recombinant protein LIC13086 (natural protein)
pKd [1]: 7.73 | pKd [2]: 6.87 | pKd [3]: 6.49 | pKd [4]: 6.79 | pKd [5]: 7.45 | pKd [6]: 7.39 | pKd [7]: 8.24 | pKd [8]: 8.00 | pKd [9]: 8.05 | pKd [10]: 6.09
